Laboratory results published in the supplement of paper PMC10065799, “High-throughput profiling of sequence recognition by tyrosine kinases and SH2 domains using bacterial peptide display” (eLife, 2023).

Tests used:
EPHB2 = EPHB2 (UniProt P29323); test: phosphorylation enrichment, bacterial display (enrichment ratio); higher = better substrate or ligand; peptides without Tyr show the background
Fer (mouse) = test: as above
c-Abl (mouse) = test: as above
Jak2 = Jak2 (UniProt O60674); test: as above
c-Src = test: as above
Hck = Hck (UniProt P08631); test: as above
AncSZ = test: as above
Fyn = Fyn (UniProt P06241); test: as above
Fes = Fes (UniProt P07332); test: as above
EPHB1 = EPHB1 (UniProt P54762); test: as above
MERTK = MERTK (UniProt Q12866); test: as above
FGFR3 = FGFR3 (UniProt P22607); test: as above
FGFR1 = FGFR1 (UniProt P11362); test: as above
c-Src SH2 = test: SH2 binding enrichment of the phosphorylated peptide, bacterial display (enrichment ratio); higher = better substrate or ligand; peptides without Tyr show the background
Grb2 SH2 = Grb2 SH2 (UniProt P62993); test: as above
SHP2-C SH2 = test: as above
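Throughout, for SH2 binding enrichment of the phosphorylated peptide, bacterial display: peptide library displayed on the E. coli surface as eCPX fusions, selected cells deep-sequenced, score is each peptide's frequency after selection divided by its frequency in the input.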
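Throughout, for phosphorylation enrichment, bacterial display: 11-residue human phosphosite peptides and single-mutation variants displayed on the E. coli surface, counted by deep sequencing, each peptide's frequency after selection divided by its frequency in the unselected input library; frequency after pTyr selection over input frequency; kinase dosed for 20-30% of maximal phosphorylation in three min.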

Chain of Grb2 SH2 (P62993 whole entry, looked up): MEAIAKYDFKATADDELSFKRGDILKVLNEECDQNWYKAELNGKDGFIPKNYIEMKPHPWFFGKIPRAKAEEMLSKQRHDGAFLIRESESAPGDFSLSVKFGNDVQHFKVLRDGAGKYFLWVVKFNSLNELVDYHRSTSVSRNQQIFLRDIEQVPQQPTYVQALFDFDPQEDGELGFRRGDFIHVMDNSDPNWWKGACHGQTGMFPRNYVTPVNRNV
Chain of EPHB1 (P54762 whole entry, looked up): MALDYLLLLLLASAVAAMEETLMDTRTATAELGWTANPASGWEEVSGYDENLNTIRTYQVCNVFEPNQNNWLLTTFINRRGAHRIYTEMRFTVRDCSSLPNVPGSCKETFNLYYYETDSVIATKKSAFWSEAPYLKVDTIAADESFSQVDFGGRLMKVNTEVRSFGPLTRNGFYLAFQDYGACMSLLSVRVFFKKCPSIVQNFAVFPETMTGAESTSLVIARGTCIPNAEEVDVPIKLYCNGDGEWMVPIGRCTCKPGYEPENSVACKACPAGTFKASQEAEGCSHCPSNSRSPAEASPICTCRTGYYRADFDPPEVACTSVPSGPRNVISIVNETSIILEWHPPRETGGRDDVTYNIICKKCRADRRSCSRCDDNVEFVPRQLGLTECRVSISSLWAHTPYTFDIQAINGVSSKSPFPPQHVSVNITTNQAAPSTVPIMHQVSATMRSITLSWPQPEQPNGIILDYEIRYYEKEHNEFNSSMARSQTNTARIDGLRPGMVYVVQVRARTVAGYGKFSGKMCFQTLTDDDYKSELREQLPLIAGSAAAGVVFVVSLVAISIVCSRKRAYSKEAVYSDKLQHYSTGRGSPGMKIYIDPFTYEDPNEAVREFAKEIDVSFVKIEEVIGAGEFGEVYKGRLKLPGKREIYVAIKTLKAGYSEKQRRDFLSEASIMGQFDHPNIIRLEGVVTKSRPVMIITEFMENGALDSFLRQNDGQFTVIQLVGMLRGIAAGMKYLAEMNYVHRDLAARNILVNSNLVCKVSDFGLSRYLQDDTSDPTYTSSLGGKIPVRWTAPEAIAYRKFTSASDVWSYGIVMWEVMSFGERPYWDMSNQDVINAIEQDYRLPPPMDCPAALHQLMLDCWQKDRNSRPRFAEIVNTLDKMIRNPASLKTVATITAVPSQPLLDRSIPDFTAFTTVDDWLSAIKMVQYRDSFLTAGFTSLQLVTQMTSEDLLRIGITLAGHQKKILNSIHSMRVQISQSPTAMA
Chain of Fyn (P06241 whole entry, looked up): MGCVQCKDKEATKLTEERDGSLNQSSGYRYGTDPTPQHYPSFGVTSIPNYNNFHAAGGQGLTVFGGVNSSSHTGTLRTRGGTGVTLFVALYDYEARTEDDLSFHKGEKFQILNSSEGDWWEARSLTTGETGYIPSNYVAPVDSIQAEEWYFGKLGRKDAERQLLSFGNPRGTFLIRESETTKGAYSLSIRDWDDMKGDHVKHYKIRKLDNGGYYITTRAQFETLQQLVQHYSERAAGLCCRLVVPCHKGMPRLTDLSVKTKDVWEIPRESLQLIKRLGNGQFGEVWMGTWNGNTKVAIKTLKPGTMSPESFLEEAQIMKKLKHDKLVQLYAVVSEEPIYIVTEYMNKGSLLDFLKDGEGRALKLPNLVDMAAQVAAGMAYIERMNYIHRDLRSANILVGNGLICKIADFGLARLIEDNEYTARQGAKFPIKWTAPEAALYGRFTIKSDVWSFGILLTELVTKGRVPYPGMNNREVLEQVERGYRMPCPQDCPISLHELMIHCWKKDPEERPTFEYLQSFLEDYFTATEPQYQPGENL
Chain of MERTK (Q12866 whole entry, looked up): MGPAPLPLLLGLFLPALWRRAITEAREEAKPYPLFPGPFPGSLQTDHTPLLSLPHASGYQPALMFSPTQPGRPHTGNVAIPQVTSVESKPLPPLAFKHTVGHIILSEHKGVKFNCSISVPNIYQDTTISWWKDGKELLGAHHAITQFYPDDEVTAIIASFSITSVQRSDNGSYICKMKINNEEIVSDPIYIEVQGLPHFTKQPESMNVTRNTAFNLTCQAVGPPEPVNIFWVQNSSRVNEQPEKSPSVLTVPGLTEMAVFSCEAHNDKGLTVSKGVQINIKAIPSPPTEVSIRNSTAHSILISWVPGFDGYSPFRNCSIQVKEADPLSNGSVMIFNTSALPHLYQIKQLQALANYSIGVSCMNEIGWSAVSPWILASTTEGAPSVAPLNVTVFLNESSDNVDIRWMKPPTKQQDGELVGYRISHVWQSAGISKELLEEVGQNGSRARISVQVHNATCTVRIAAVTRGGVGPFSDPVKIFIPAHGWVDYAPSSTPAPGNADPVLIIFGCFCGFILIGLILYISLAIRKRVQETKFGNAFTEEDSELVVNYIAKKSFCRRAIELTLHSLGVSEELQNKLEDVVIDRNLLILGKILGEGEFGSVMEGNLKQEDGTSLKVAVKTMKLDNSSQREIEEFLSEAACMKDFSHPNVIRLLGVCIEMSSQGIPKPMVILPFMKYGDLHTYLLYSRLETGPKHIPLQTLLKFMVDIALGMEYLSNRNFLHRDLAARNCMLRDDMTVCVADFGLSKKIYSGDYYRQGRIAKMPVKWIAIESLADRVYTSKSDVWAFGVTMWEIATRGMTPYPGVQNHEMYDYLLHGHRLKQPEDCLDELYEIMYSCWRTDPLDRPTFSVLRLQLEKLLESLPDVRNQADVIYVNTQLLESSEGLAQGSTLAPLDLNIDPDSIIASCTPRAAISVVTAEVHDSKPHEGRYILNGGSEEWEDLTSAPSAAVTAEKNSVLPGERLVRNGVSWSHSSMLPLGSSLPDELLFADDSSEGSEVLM
Chain of Jak2 (O60674 whole entry, looked up): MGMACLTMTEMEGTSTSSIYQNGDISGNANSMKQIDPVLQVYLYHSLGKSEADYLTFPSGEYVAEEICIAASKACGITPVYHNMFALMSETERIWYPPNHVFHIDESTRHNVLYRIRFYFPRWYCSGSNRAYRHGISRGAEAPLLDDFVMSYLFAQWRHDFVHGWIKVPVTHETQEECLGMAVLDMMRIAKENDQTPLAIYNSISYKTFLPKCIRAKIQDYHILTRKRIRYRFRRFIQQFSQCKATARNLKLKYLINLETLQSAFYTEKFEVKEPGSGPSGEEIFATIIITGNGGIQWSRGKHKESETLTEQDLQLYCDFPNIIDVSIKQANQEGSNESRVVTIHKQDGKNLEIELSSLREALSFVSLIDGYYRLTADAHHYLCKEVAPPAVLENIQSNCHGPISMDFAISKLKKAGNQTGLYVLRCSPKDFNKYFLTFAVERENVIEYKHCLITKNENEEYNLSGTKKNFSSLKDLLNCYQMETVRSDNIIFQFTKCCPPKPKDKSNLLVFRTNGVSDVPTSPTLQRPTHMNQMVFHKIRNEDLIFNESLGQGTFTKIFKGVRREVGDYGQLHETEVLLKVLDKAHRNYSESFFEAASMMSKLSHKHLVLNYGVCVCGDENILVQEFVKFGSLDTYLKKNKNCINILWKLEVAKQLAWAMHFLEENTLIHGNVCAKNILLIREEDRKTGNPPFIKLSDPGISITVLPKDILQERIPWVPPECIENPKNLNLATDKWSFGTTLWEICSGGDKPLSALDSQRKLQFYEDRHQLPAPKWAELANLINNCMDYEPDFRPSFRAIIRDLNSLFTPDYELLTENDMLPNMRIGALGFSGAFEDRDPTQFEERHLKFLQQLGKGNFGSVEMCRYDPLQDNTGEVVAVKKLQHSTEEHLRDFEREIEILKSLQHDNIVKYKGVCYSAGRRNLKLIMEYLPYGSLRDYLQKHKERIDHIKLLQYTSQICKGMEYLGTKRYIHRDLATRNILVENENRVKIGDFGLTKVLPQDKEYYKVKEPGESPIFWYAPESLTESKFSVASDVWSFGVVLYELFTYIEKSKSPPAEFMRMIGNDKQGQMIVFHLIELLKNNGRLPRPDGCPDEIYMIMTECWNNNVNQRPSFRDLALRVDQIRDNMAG
Chain of EPHB2 (P29323 whole entry, looked up): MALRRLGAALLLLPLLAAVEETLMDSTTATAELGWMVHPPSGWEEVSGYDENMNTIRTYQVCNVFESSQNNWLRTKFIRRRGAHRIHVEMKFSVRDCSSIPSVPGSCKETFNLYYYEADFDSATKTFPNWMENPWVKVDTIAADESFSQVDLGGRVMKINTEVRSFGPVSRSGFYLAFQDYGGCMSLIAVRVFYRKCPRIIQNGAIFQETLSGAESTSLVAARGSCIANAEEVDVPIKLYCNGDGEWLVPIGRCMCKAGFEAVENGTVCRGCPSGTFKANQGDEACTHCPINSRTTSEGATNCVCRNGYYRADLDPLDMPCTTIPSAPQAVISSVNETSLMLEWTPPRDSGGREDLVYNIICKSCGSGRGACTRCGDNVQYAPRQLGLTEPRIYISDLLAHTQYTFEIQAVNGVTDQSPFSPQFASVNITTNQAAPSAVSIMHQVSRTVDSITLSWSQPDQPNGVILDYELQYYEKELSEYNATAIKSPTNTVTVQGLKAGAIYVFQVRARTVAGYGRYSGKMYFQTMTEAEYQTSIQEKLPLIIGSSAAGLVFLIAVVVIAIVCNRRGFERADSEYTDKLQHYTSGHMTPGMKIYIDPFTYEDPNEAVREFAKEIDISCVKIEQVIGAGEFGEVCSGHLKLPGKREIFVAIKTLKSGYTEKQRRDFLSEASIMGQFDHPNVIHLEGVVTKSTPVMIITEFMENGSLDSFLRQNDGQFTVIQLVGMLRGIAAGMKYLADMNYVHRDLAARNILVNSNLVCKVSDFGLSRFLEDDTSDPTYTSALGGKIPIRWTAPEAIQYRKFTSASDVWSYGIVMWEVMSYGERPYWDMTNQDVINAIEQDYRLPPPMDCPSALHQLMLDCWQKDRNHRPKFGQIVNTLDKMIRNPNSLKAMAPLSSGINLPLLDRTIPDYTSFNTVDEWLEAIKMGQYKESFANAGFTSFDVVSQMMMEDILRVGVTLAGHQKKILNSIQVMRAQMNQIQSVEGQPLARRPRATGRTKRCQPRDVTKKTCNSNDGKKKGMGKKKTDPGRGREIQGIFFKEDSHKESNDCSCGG

Row | Sequence | phosphorylation enrichment (EPHB2) | phosphorylation enrichment (Fer (mouse)) | phosphorylation enrichment (c-Abl (mouse)) | phosphorylation enrichment (Jak2) | phosphorylation enrichment (c-Src) | phosphorylation enrichment (Hck) | phosphorylation enrichment (AncSZ) | phosphorylation enrichment (Fyn) | phosphorylation enrichment (Fes) | phosphorylation enrichment (EPHB1) | phosphorylation enrichment (MERTK) | phosphorylation enrichment (FGFR3) | phosphorylation enrichment (FGFR1) | SH2 binding enrichment (c-Src SH2) | SH2 binding enrichment (Grb2 SH2) | SH2 binding enrichment (SHP2-C SH2)
1 | IRKTEYPFSSE [ATP2C1_Y452_A450T] | 0.397 | 0.339 | 0.549 | 0.599 | 0.428 | 0.405 | 0.582 | 0.401 | 0.837 | 0.426 | 0.348 | 0.449 | 0.466 | 0.587 | 0.928 | 0.807
2 | EQQRAYLEGTC [HLA-C_Y183_L180Q] | 0.555 | 0.455 | 0.834 | 0.93 | 0.531 | 0.556 | 0.939 | 0.518 | 1.03 | 0.647 | 0.521 | 0.602 | 0.599 | 0.69 | 0.916 | 0.758
3 | YSGDYYRIQGR [DDR2_Y741] | 2.72 | 0.429 | 1.76 | 8.46 | 2.31 | 1.68 | 1.82 | 1.04 | 0.846 | 5.47 | 5.04 | 8.65 | 12.1 | 0.552 | 1.01 | 0.673
4 | YKIYRYTLNDN [FN1_Y1975_L1974R] | 0.557 | 0.406 | 0.688 | 0.905 | 0.415 | 0.573 | 1.13 | 0.368 | 1.04 | 0.467 | 0.331 | 0.617 | 0.439 | 0.534 | 0.77 | 0.832
5 | LANNEYYFQVC | 1.56 | 1.11 | 1.02 | 2.34 | 1.94 | 1.19 | 3.4 | 1.43 | 1.69 | 1.63 | 2.08 | 12.9 | 15.7 | 0.431 | 0.93 | 0.576
6 | AKLKDYFIFNK [CCDC42_Y149_YF] | 0.513 | 0.487 | 0.435 | 0.759 | 0.658 | 0.478 | 0.82 | 0.465 | 0.783 | 0.417 | 0.56 | 1 | 1.49 | 0.846 | 1.37 | 0.847
7 | RAEAPYLLVSN [LRIG1_Y1054_Q1053P] | 0.36 | 0.699 | 0.556 | 0.748 | 1.79 | 0.564 | 0.655 | 0.654 | 0.775 | 0.4 | 0.456 | 1.18 | 1.72 | 0.695 | 0.847 | 0.645
8 | YIPSNYVAEDR [FRK_Y104] | 0.623 | 0.434 | 0.685 | 0.721 | 0.536 | 0.501 | 0.921 | 0.523 | 0.954 | 0.519 | 0.535 | 0.72 | 0.634 | 0.761 | 1 | 0.948
9 | ATATEYHTTSH [SLC4A1_Y46_D45E] | 0.55 | 0.301 | 0.487 | 0.99 | 0.413 | 0.333 | 0.506 | 0.38 | 0.509 | 0.316 | 0.395 | 0.309 | 0.456 | 0.548 | 1 | 0.518
10 | LAVGDYMRRQK [ATM_Y1915_V1913G] | 0.41 | 0.504 | 0.555 | 0.691 | 0.503 | 0.504 | 0.696 | 0.545 | 0.734 | 0.441 | 0.476 | 0.411 | 0.437 | 0.37 | 0.597 | 0.695
11 | IFGVSYDEFRF [CFTR_Y512_YF] | 0.524 | 1.52 | 0.678 | 1.09 | 2.32 | 0.93 | 1.07 | 0.673 | 0.982 | 0.456 | 0.671 | 0.609 | 0.5 | 0.897 | 0.991 | 0.684
12 | EGWQVYRLGTR [MISP_Y95_A99T] | 0.457 | 0.45 | 0.525 | 0.733 | 3.69 | 1.03 | 0.846 | 1.78 | 0.75 | 0.416 | 0.325 | 0.645 | 0.44 | 0.546 | 1.03 | 0.871
13 | AAALAYGLDKS [HSPA9_Y230] | 0.4 | 0.467 | 0.499 | 1.2 | 0.528 | 0.419 | 0.598 | 0.388 | 1.12 | 0.442 | 0.398 | 0.477 | 0.455 | 0.423 | 0.69 | 0.637
14 | AELVQYYMEHH [PTPN11_Y80] | 1.01 | 0.494 | 0.826 | 1.19 | 0.845 | 0.974 | 1.2 | 0.654 | 1.26 | 1.06 | 0.68 | 0.954 | 0.827 | 0.683 | 0.688 | 1.13
15 | VDSNPYSRLVA [UBA5_Y53_M57V] | 0.584 | 0.785 | 0.648 | 0.611 | 1.02 | 1.21 | 0.743 | 0.553 | 0.64 | 0.55 | 0.445 | 0.559 | 0.465 | 1.7 | 1.38 | 3.46
16 | KDQGIYEDYVE [MYL6_Y86_T85I] | 0.853 | 1.03 | 0.851 | 0.936 | 2.02 | 1.06 | 1.2 | 2.05 | 1.08 | 0.74 | 0.489 | 0.672 | 0.58 | 0.535 | 0.899 | 0.905
17 | PTYKHYANSTQ [SLC12A3_Y70_E68K] | 0.418 | 0.448 | 0.44 | 0.593 | 0.422 | 0.434 | 0.39 | 0.542 | 0.592 | 0.391 | 0.442 | 0.466 | 0.529 | 0.56 | 0.702 | 0.768

Row | Sequence | phosphorylation enrichment (EPHB2) | phosphorylation enrichment (Fer (mouse)) | phosphorylation enrichment (c-Abl (mouse)) | phosphorylation enrichment (Jak2) | phosphorylation enrichment (c-Src) | phosphorylation enrichment (Hck) | phosphorylation enrichment (AncSZ) | phosphorylation enrichment (Fyn) | phosphorylation enrichment (Fes) | phosphorylation enrichment (EPHB1) | phosphorylation enrichment (MERTK) | phosphorylation enrichment (FGFR3) | phosphorylation enrichment (FGFR1) | SH2 binding enrichment (c-Src SH2) | SH2 binding enrichment (Grb2 SH2) | SH2 binding enrichment (SHP2-C SH2)
18 | KALKQYRASPS [DDX27_Y763_G766S] | 0.344 | 0.368 | 0.552 | 0.439 | 0.43 | 0.318 | 0.411 | 0.373 | 0.423 | 0.312 | 0.401 | 0.309 | 0.328 | 0.537 | 0.801 | 0.691
19 | RLPNGYGLAYR [DLK1_Y262_S260N] | 0.528 | 0.504 | 0.413 | 0.509 | 0.423 | 0.571 | 0.706 | 0.961 | 0.737 | 0.416 | 0.453 | 0.573 | 0.663 | 0.656 | 1.15 | 0.55
20 | ETGEPYRLSPE [EIF4G1_Y311] | 0.68 | 0.635 | 0.893 | 1 | 0.527 | 0.631 | 1.19 | 0.505 | 1.15 | 0.733 | 0.503 | 0.783 | 0.58 | 0.572 | 0.883 | 0.75
21 | WFPANYVKLLS [ITSN1_Y1132] | 1.52 | 0.518 | 0.596 | 1.51 | 0.399 | 0.549 | 0.785 | 0.419 | 0.841 | 4.12 | 0.569 | 0.825 | 0.763 | 0.893 | 1.02 | 2.25
22 | MPLTKYLKRIK [CNGB3_Y200_E199K] | 0.377 | 0.425 | 0.498 | 0.477 | 0.391 | 0.534 | 0.641 | 0.377 | 0.623 | 0.425 | 0.431 | 0.488 | 0.472 | 0.834 | 1.27 | 1.03
23 | KANEFYPVVII [ADAMTS18_Y765_L769I_YF] | 0.695 | 0.456 | 0.663 | 1.06 | 0.478 | 0.458 | 1.03 | 0.458 | 1.16 | 0.411 | 0.386 | 1.26 | 1.9 | 0.349 | 0.626 | 0.597
24 | WHHTFYNELRV [ACTA1_Y93] | 0.483 | 0.54 | 0.657 | 0.783 | 0.546 | 0.997 | 0.875 | 0.502 | 1.01 | 0.558 | 0.587 | 0.645 | 0.552 | 1.9 | 1.2 | 1.52
25 | FLRKEYGGVNV [CBR3_Y81_L84V] | 0.4 | 0.475 | 0.612 | 0.598 | 0.578 | 0.425 | 0.644 | 0.452 | 0.916 | 0.391 | 0.471 | 0.495 | 0.416 | 0.458 | 0.984 | 0.698
26 | FGVVGYLAIMF [RNF175_Y155] | 0.579 | 0.484 | 1.37 | 1.45 | 0.443 | 0.655 | 1.04 | 0.519 | 1.44 | 0.795 | 0.532 | 0.819 | 0.474 | 0.653 | 1.11 | 0.872
27 | SDFSRYARTSI [TERT_Y949_S948R_YF] | 0.466 | 0.358 | 0.502 | 0.502 | 0.442 | 0.484 | 0.537 | 0.408 | 0.6 | 0.463 | 0.48 | 0.487 | 0.48 | 0.476 | 1.05 | 0.901
28 | GDLTDYLMKIL [ACTA1_Y190_R185G] | 0.476 | 0.42 | 0.56 | 0.648 | 0.323 | 0.453 | 0.788 | 0.397 | 0.821 | 0.508 | 0.355 | 0.509 | 0.437 | 0.711 | 1.44 | 1.19
29 | TFEYRYLEDRD [CNOT3_Y746] | 0.504 | 0.472 | 0.827 | 1.02 | 0.537 | 0.534 | 1.16 | 0.545 | 1.35 | 0.623 | 0.493 | 0.848 | 0.935 | 1.01 | 0.76 | 0.81
30 | RLLRGYRQDAY [HLA-A_Y137_F133L] | 0.611 | 0.653 | 0.67 | 0.802 | 0.537 | 0.645 | 0.985 | 0.769 | 0.777 | 0.374 | 0.694 | 0.519 | 0.608 | 0.437 | 0.638 | 0.593
31 | RRDRDYTNLPS [CSF1R_Y923_E920D] | 0.682 | 0.64 | 1.65 | 0.639 | 0.545 | 0.673 | 1.15 | 0.551 | 0.893 | 0.604 | 0.442 | 0.696 | 0.815 | 1.45 | 1.87 | 0.677
32 | VDGSVYKLHPS [GCK_Y413] | 0.543 | 0.642 | 0.614 | 0.735 | 3.28 | 1.03 | 0.581 | 2.64 | 0.655 | 0.467 | 0.424 | 0.583 | 0.536 | 0.488 | 0.755 | 1.01
33 | TDLAYYLVREG [ASL_Y376_K380E] | 0.706 | 0.466 | 0.579 | 3.04 | 1.67 | 0.955 | 1.54 | 0.734 | 0.905 | 0.578 | 1.34 | 7.06 | 9.61 | 1.51 | 0.751 | 2.07
